Results on 1 molecule are retold here after patent publication US7470668B2, “Method of use of specific natriuretic peptide receptor c ligands, transgenic non-human mammals expressing specific natriuretic peptide receptor c antagonists and cells thereof” (Enobia Pharma Inc., priority 2005, dated 2008).

The target of one assay is T1, NPR-C (Homo sapiens, UniProt P17342).
T1 construct: expressed in transfected cells; host or cells: HEK293, transient, pCDNA1.1 (CMV promoter)
T1 sequence (P17342 27-541): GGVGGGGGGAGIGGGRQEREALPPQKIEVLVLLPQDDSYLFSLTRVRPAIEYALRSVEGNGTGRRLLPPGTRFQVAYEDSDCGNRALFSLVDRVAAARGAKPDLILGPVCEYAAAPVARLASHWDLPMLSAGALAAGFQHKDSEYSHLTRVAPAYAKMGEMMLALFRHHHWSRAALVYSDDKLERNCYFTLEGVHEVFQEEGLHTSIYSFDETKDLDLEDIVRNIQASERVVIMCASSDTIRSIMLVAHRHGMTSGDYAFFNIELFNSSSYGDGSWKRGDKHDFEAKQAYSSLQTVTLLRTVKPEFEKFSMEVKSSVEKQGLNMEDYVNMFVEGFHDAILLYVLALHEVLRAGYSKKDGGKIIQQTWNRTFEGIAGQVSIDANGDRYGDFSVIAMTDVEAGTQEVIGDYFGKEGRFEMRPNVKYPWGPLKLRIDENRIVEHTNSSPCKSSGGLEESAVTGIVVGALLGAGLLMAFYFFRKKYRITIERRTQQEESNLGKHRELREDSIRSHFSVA
Put plainly: ANP-stimulated cGMP in NPR-C overexpressing HEK293 cells. It counts as cell-based. The note with it: NPR-C-expressing cells, 0.1 nM ANP plus 10 nM peptide. An excerpt: The expression plasmid for rat GC-A containing the entire coding sequence cloned between the NheI-KpnI sites of CMV-driven pBK plasmid (Stratagene, La Jolla, Calif.) was kindly provided by Dr. A. De Léan (Département de Pharmacologie, Université de Montréal). The human NPR-C and GC-B coding sequences were amplified by RT-PCR from human embryonic kidney polyA RNA (Clontech, Palo Alto, Calif.) with the following primer pairs: NPR-C-5′-[…]-3′(forward) (SEQ ID NO: 74) and 5′-[…]-3′ (SEQ ID NO: 75) (reverse); GC-B-5′-[…]-3′ (SEQ ID NO: 76) (forward) and 5′-[…]-3′ (SEQ ID NO: 77) (reverse). The resulting PCR products were then cloned downstream of the CMV-promoter into the pCDNA1.1 plasmid (Invitrogen, Burlington, ON, Canada). All constructs were validated by DNA sequencing.

The next assay has as its system OVX rat. Description: Aged rat ovariectomy osteoporosis model, femoral BMD. It is filed as in vivo. The note with it: daily sub-cutaneous injections for 4 weeks, started 4 weeks post-OVX. From the text: The most widely used non-primate model for pre-clinical osteoporosis studies is the aged rat ovariectomy model (OVX rat). In this model, rapid trabecular bone loss occurs within the first month after ovariectomy (OVX) with an upregulation of both osteoblast and osteoclast activity resulting in increased bone turnover. However, similar to osteoporosis, the levels of osteoclast activity exceed those of osteoblast activity resulting in an imbalance in remodelling and consequently bone loss. […]
Thus, for the testing of potential therapeutic compounds in such a model one has two choices of approach. […] Efficacy can then be measured by assessing the ability of the compound to replace already lost bone. […]
The second approach was adopted to allow the Ostn's therapeutic potential through both anabolic and anti-resorptive efficacies to be assessed. […] Rats were left for a 4-week period following ovariectomy or sham-operation for bone loss to occur and at this point bone loss was assessed by X-ray and DEXA before proceeding with the experiment (groups 1+2). […]
FIG. 10 represents the femoral BMD (i.e. The amount of mineralized bone tissue in a given area, usually calculated as grams per square centimeter) as measured by Piximus™ on excised femurs fixed in 70% ethanol. […]

B1: rhOstn[27-133]: N-terminal 6 histidine-tagged recombinant human Ostn amino acids 27-133 produced in E.coli, SEQ ID NO: 57 (protein)
chain: SVDVTTTEAFDSGVIDVQSTPTVREEKSATDLTAKLLLLDELVSLENDVIETKKKRSFSGFGSPLDRLSAGSVDHKGKQRKVVDHPKRRFGIPMDRIGRNRLSNSRG
modifications: N-terminal His6 tag; recombinant mature osteocrin
For the molecule B1, the “increase in cGMP levels (restored ANP signalling)” value with NPR-C is recorded as 8 fold. In the assay on OVX rat, the “gain in femoral BMD over OVX-saline or OVX-mock treated rats” value came to 6%.
